Target: HLA-A*02:01 (Homo sapiens, UniProt P04439, D140Y/D185E/D98H/E176V/E277Q/G131W/G231S/I119V/I121R/I166T/I218V/L300P/L318F/N151K/N90K/P208A/P217A/Q86G/Q94H/R138H/R169H/T345S)
Experiment: MHC binding assay (UV-ligand exchange, beta2m ELISA)
Conditions: binding to HLA-A*02:01, β2m ELISA
Procedure, shortened: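 UV-exchange pMHC monomers, 100-fold diluted → streptavidin capture 1 h 37 °C → HRP anti-β2m 2 ug/ml 1 h 37 °C → TMB, A450. Yield from HLA-A*02:01/MLA-001 monomer standard curve, 15-500 ng/ml. Only stably bound peptides keep β2m-containing complexes intact.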

188 (VLGEEQEGV; listed as Homo sapiens) [compound 188]
Peptide exchange (MHC class I binding score, peptide exchange yield): ++ (≧20% = ++)

164 (MLIIRVPSV; listed as Homo sapiens) [compound 164]
Peptide exchange (MHC class I binding score, peptide exchange yield): +++ (≧50 = +++)

219 (GVVPTIQKV; listed as Homo sapiens) [compound 219]
Peptide exchange (MHC class I binding score, peptide exchange yield): ++ (≧20% = ++)

107 (RVLPGQAVTGV; listed as Homo sapiens) [compound 107]
Peptide exchange (MHC class I binding score, peptide exchange yield): ++ (≧20% = ++)

248 (VLMQDSRLYL; listed as Homo sapiens) [compound 248]
Peptide exchange (MHC class I binding score, peptide exchange yield): +++ (≧50 = +++)

194 (KLLEEVQLL; listed as Homo sapiens) [compound 194]
Peptide exchange (MHC class I binding score, peptide exchange yield): ++ (≧20% = ++)

200 (IMPTFDLTKV; listed as Homo sapiens) [compound 200]
Peptide exchange (MHC class I binding score, peptide exchange yield): +++ (≧50 = +++)

280 (HLWGHALFL; listed as Homo sapiens) [compound 280]
Peptide exchange (MHC class I binding score, peptide exchange yield): +++ (≧50 = +++)

11 (LLDPKTIFL; listed as Homo sapiens) [compound 11]
Peptide exchange (MHC class I binding score, peptide exchange yield): +++ (≧50 = +++)

38 (VLQQESNFL; listed as Homo sapiens) [compound 38]
Peptide exchange (MHC class I binding score, peptide exchange yield): ++ (≧20% = ++)

223 (ALHPVQFYL; listed as Homo sapiens) [compound 223]
Peptide exchange (MHC class I binding score, peptide exchange yield): +++ (≧50 = +++)

158 (YLDPLWHQL; listed as Homo sapiens) [compound 158]
Peptide exchange (MHC class I binding score, peptide exchange yield): +++ (≧50 = +++)

276 (RMPTVLQCV; listed as Homo sapiens) [compound 276]
Peptide exchange (MHC class I binding score, peptide exchange yield): +++ (≧50 = +++)

84 (FLLEREQLL; listed as Homo sapiens) [compound 84]
Peptide exchange (MHC class I binding score, peptide exchange yield): ++++ (≧75% = ++++)

181 (LLWAPTAQA; listed as Homo sapiens) [compound 181]
Peptide exchange (MHC class I binding score, peptide exchange yield): +++ (≧50 = +++)

115 (ILHGEVNKV; listed as Homo sapiens) [compound 115]
Peptide exchange (MHC class I binding score, peptide exchange yield): ++ (≧20% = ++)

215 (QIADIVTSV; listed as Homo sapiens) [compound 215]
Peptide exchange (MHC class I binding score, peptide exchange yield): ++ (≧20% = ++)

142 (LLDAAHASI; listed as Homo sapiens) [compound 142]
Peptide exchange (MHC class I binding score, peptide exchange yield): ++ (≧20% = ++)

48 (KISDFGLATV; listed as Homo sapiens) [compound 48]
Peptide exchange (MHC class I binding score, peptide exchange yield): +++ (≧50 = +++)

269 (GLLDCPIFL; listed as Homo sapiens) [compound 269]
Peptide exchange (MHC class I binding score, peptide exchange yield): ++++ (≧75% = ++++)

204 (SEWGSPHAAVP; listed as Homo sapiens) [compound 204]
Peptide exchange (MHC class I binding score, peptide exchange yield): +++ (≧50 = +++)

244 (NVAEIVIHI; listed as Homo sapiens) [compound 244]
Peptide exchange (MHC class I binding score, peptide exchange yield): +++ (≧50 = +++)

23 (ALLSPLSLA; listed as Homo sapiens) [compound 23]
Peptide exchange (MHC class I binding score, peptide exchange yield): +++ (≧50 = +++)

72 (VLSTRVTNV; listed as Homo sapiens) [compound 72]
Peptide exchange (MHC class I binding score, peptide exchange yield): ++ (≧20% = ++)

62 (SLVENIHVL; listed as Homo sapiens) [compound 62]
Peptide exchange (MHC class I binding score, peptide exchange yield): +++ (≧50 = +++)

80 (VLTGQVHEL; listed as Homo sapiens) [compound 80]
Peptide exchange (MHC class I binding score, peptide exchange yield): +++ (≧50 = +++)

132 (ALLNNVIEV; listed as Homo sapiens) [compound 132]
Peptide exchange (MHC class I binding score, peptide exchange yield): +++ (≧50 = +++)

44 (AVFNLVHVV; listed as Homo sapiens) [compound 44]
Peptide exchange (MHC class I binding score, peptide exchange yield): +++ (≧50 = +++)

220 (ALSELERVL; listed as Homo sapiens) [compound 220]
Peptide exchange (MHC class I binding score, peptide exchange yield): +++ (≧50 = +++)

133 (FLDGRPLTL; listed as Homo sapiens) [compound 133]
Peptide exchange (MHC class I binding score, peptide exchange yield): ++ (≧20% = ++)

182 (GLQDGFQITV; listed as Homo sapiens) [compound 182]
Peptide exchange (MHC class I binding score, peptide exchange yield): +++ (≧50 = +++)

198 (ILTNKVVSV; listed as Homo sapiens) [compound 198]
Peptide exchange (MHC class I binding score, peptide exchange yield): ++ (≧20% = ++)

159 (QLGPVPVTI; listed as Homo sapiens) [compound 159]
Peptide exchange (MHC class I binding score, peptide exchange yield): +++ (≧50 = +++)

63 (KLLPMVIQL; listed as Homo sapiens) [compound 63]
Peptide exchange (MHC class I binding score, peptide exchange yield): +++ (≧50 = +++)

271 (VLIEYNFSI; listed as Homo sapiens) [compound 271]
Peptide exchange (MHC class I binding score, peptide exchange yield): +++ (≧50 = +++)

114 (LLFPSDVQTL; listed as Homo sapiens) [compound 114]
Peptide exchange (MHC class I binding score, peptide exchange yield): ++ (≧20% = ++)

238 (HLQEKLQSL; listed as Homo sapiens) [compound 238]
Peptide exchange (MHC class I binding score, peptide exchange yield): ++ (≧20% = ++)

237 (ALLEQTGDMSL; listed as Homo sapiens) [compound 237]
Peptide exchange (MHC class I binding score, peptide exchange yield): +++ (≧50 = +++)

149 (NMADGQLHQV; listed as Homo sapiens) [compound 149]
Peptide exchange (MHC class I binding score, peptide exchange yield): ++ (≧20% = ++)

60 (YLFSQGLQGL; listed as Homo sapiens) [compound 60]
Peptide exchange (MHC class I binding score, peptide exchange yield): +++ (≧50 = +++)

128 (SILTNISEV; listed as Homo sapiens) [compound 128]
Peptide exchange (MHC class I binding score, peptide exchange yield): ++ (≧20% = ++)

92 (RLFEEVLGV; listed as Homo sapiens) [compound 92]
Peptide exchange (MHC class I binding score, peptide exchange yield): ++++ (≧75% = ++++)

187 (SILKEDPFL; listed as Homo sapiens) [compound 187]
Peptide exchange (MHC class I binding score, peptide exchange yield): ++ (≧20% = ++)

64 (SLYAGSNNQV; listed as Homo sapiens) [compound 64]
Peptide exchange (MHC class I binding score, peptide exchange yield): ++ (≧20% = ++)

100 (ALQSFEFRV; listed as Homo sapiens) [compound 100]
Peptide exchange (MHC class I binding score, peptide exchange yield): +++ (≧50 = +++)

55 (HLFDKIIKI; listed as Homo sapiens) [compound 55]
Peptide exchange (MHC class I binding score, peptide exchange yield): +++ (≧50 = +++)

241 (KQFEGTVEI; listed as Homo sapiens) [compound 241]
Peptide exchange (MHC class I binding score, peptide exchange yield): +++ (≧50 = +++)

221 (IMLNSVEEI; listed as Homo sapiens) [compound 221]
Peptide exchange (MHC class I binding score, peptide exchange yield): ++ (≧20% = ++)

30 (IITEVITRL; listed as Homo sapiens) [compound 30]
Peptide exchange (MHC class I binding score, peptide exchange yield): +++ (≧50 = +++)

74 (GLAFLPASV; listed as Homo sapiens) [compound 74]
Peptide exchange (MHC class I binding score, peptide exchange yield): ++ (≧20% = ++)

214 (ALFETLIQL; listed as Homo sapiens) [compound 214]
Peptide exchange (MHC class I binding score, peptide exchange yield): +++ (≧50 = +++)

110 (QIQGQVSEV; listed as Homo sapiens) [compound 110]
Peptide exchange (MHC class I binding score, peptide exchange yield): ++ (≧20% = ++)

282 (SLYALHVKA; listed as Homo sapiens) [compound 282]
Peptide exchange (MHC class I binding score, peptide exchange yield): ++ (≧20% = ++)

284 (KLMDPGSLPPL; listed as Homo sapiens) [compound 284]
Peptide exchange (MHC class I binding score, peptide exchange yield): ++ (≧20% = ++)

65 (SLSEKSPEV; listed as Homo sapiens) [compound 65]
Peptide exchange (MHC class I binding score, peptide exchange yield): ++ (≧20% = ++)

— patent publication US9802997B2, “Peptides and combination of peptides for use in immunotherapy against various tumors” (immatics biotechnologies GmbH, priority 2015, dated 2017)
